B1: Caspase recruitment domain-containing protein 19 (Homo sapiens), Q96LW7 (parent)
chain: MTDQTYCDRLVQDTPFLTGHGRLSEQQVDRIILQLNRYYPQILTNKEAEKFRNPKASLRVRLCDLLSHLQRSGERDCQEFYRALYIHAQPLHSRLPSRHALRKFHITNHACLVLARGGHPSLPLMAWMSSMTTQVCCSPGLASPLASAPPQRPPSGPEGRVWQAQAVQMLVSVSHFLPLPPSLSHGSFHTAWGILYVHSCPSFSNLIPRGSLHVCVDSNLVPTAAWRS
partner: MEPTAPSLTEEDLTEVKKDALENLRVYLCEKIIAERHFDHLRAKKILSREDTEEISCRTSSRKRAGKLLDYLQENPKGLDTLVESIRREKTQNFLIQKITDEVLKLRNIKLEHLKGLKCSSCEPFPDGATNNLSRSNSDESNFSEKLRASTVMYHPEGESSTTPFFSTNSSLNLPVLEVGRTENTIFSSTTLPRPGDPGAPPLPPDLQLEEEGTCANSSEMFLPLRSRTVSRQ

Variants of: B1
Details: with bcl10_human BCL10, O95999

| effect of a mutation on the interaction | Variant |
| --- | --- |
| disrupting interaction | L65A |
